According to patent US20260116991A1 (HAINAN SIMCERE ZAIMING PHARMACEUTICAL, published 2026):

B1: F1.21.8 (antibody, human IgG1, kappa, V domains shown)
VH: EVQLQQSGPELVKPGASVKISCKTSGFLFTGHYMHWVKSSHGNILDWIGYIYPYNAISFYNQKFKGKATLTVDKSSNTAYMELRSLTSEDSAVYYCARGDYGNYVTAYWGQGTLVTVSA
VL: DVLMTQTPLSLPVSLGDQASISCRSSQSIVHSSGNTYLEWYLQKPGQSPKLLIYKVSNRFSGVPDRFSGSGSGTDFTLKISRVEAEDLGVYYCFQGSHLPWTFGGGTKLDIKR
notes: Human-murine chimeric antibody
B2: F2.169.2 (antibody, human IgG1, kappa, V domains shown)
VH: EVQLVETGGGLVQPKGSLKLSCAASGFSFNTNAMNWVRQAPGKGLEWVARIRSKSNNYATYYADSVKDRFTISRDDSQSMLYLQMNNLKTEDTAMYYCVRDGYYVLFAYWGQGTLVTVSA
VL: DVLMTQTPLSLPVSLGDQASISCRFSQSIVNSNGNTYLEWFLQKPGQSPKLLIYKVSNRFSGVPDRFSGSGSGTDFTLKISRVEAEDLGVYYCFQGSHVPFTFGTGTKLEIKR
notes: as for B1
B3: F1.41.17 (antibody, human IgG1, kappa, V domains shown)
VH: EVQLVESGGDSVKPGGSLKLSCAASGFTFSSYGMSWVRQTPDKRLEWVATINSGGSYTYYQDSVKGRFTISRDNAKNTLYLQMSSLKSEDTAIYYCVRHHYGSSYDYFDYWGQGTTLTVSS
VL: DIVMTQAAPSVPVMPGESVSISCRSSKSLLHSNGNTHLYWFLQRPGQSPQLLIYRMSNLASGVPDRFSGSGSGTAFTLRISRVEAEDVGVYYCMQHLEYPLTFGAGTKLELKR
notes: as for B1
B4: F1.110.24 (antibody, human IgG1, kappa, V domains shown)
VH: EVKLVESGGGLVQPGGSLKLSCAASGFTFSDFYMYWVRQTPEKRLEWVAFISNGGGSTYYPDTVKGRFTISRDNVKNTLYLQMSRLKSEDTAMYYCARPDTSWFAYWGQGSLVTVSA
VL: DIQMTQTTSSLSASLGDRVTISCRASQDIDNYLNWYQQKPDGTVKVLISYTSRLHSGVPSRFSGSGSGTDYSLTISNLEQEDIATYFCQQGNTLPWTFGGGTKLEIKR
notes: as for B1
B5: F1.78.24 (antibody, human IgG1, kappa, V domains shown)
VH: QVQLQQSGAELVKPGASVKMSCKASGYTFTTYPIEWMKQNHGKSLEWIGNFHPYNDDTNYNVKFKGKATLTVEKSSSTVYLELSRLTSDDSALYYCARRREYYGSFDVWGTGTTVTVSS
VL: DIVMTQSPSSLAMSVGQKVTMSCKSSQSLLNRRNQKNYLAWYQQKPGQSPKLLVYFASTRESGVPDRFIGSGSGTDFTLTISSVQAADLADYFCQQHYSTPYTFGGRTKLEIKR
notes: as for B1
B6: F1.2.14 (antibody, human IgG1, kappa, V domains shown)
VH: RVQLQQSGAELVKPGASVRMSCKASGYTFTAYSIEWMKQNLGKSLEWIGNFRPYNDDTKYNENFKGRATLTVEKSSATVYLELSRLTSDDSAVYYCARSGPTDYFDYWGQGTTLIVSS
VL: DIQMTQSPASLSASVGETVTITCRASDNIYSYLAWYQQKQGQSPQLLVYNAKTLAEGVPSRFSGSGSVTQFSLKIISLQPEDFGTYYCQHHFGTPRTFGGGTKLEIKR
notes: as for B1
B7: F1.57.21 (antibody, human IgG1, kappa, V domains shown)
VH: QVQLQQSGAELARPGASVKLSCKASGYTFTSYGISWVKQITGQGLEWIGEIYPRSESTYYNEKFKGKATLTADKSSSTAYMELRSLTSEDSAVYFCARDYGNIYSFAYWGQGTLVTVSA
VL: DIQMTQSPASLSASVGETVTITCRTSENIYSYLAWYQQKQGKSPQLLVYNAKTLAEGVPSRFSGSGSGTQFSLKINSLQPEDFGSYYCQHHYGTPLTFGAGTKLELKR
notes: as for B1
B8: F1.83.6 (antibody, human IgG1, kappa, V domains shown)
VH: QVQLQQSGPELVKPGASVKISCKASGYAFSSSWMNWVKQRPGKGLEWIGRIYPGDGDTNYNGRFKGKATLTVDKSSSTAYMQLSSLTSEDSAVYFCARGGVFTMALDHWGQGTTLTVSS
VL: DIQMTQSPSSLSASLGGKVTITCKASQDINKYIAWYQHKPGKGPRLLIHYTSTLQPGIPSRFSGSGSGRDYSFSISNLEPEDIATYYCLQYDNLFTFGGGTKLEIKR
notes: as for B1
B9: F1.92.17 (antibody, human IgG1, kappa, V domains shown)
VH: EVQLQQSGPELVKPGASVKMSCKASGYTFTDYNMHWVRQSHGKSLEWIGYINPNNGDTIYNQNFKGKATLTVNKSSSTAYMELRSLTSEDSAVYYCSRTITYYYSMDYWGPGTSVTVSS
VL: QIVLTQSPALMSASPGEKVTMTCSASSSVSYMYWYQQKPRSSPKPWIYLTSNLASGVPARFSGSGSGTSYSLTISSMEAEDAATYYCQQWSSNPLTFGAGTKLELKR
notes: as for B1

Experiments:
monkey GPC3-His protein [1] = target: T1, monkey GPC3-His protein (monkey); assay: ELISA, monkey GPC3-His coated;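 further: Plate-coated antigen at 1 µg/mL, antibody binding 2 h at 37 °C, detected with HRP-labeled secondary antibody and TMB, absorbance at 450 nm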
T1 construct: Bought recombinant protein; also called monkey GPC3 protein
Experimental: The specific method is described as follows: The antigen protein was diluted with PBS to a final concentration of 1 μg/mL, and the diluent was added to a 96-well ELISA plate at 50 μL/well. The plate was sealed with a plastic film and incubated at 4° C. overnight, washed twice with PBS the next day, and a blocking solution [PBS+2% (w/w) BSA] was added for blocking at room temperature for 2 h. […] After incubation at 37° C. for 2 h, the plate was washed 3 times with PBS. A horseradish peroxidase (HRP)-labeled secondary antibody (purchased from Merck, Cat. No. AP113P) was added for incubation at 37° C. for 1 h, and the plate was washed 5 times with PBS. A TMB substrate was added at 50 μL/well for incubation at room temperature for 10 min, then a stop solution (1.0M HCl) was added at 50 μL/well. An ELISA plate reader (Multimode Plate Reader, EnSight, purchased from Perkin Elmer) was used to read OD_{450 nm} values, with results as shown in Table 4 to Table 6, FIG. 1A, FIG. 1B, and FIG. 1C.

[2] = target: T2, monkey GPC3 on HEK293T-monkey GPC3 cells (monkey); assay: FACS on HEK293T-monkey GPC3 cells;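 further: flow cytometry binding of test antibodies to the cells, read as mean fluorescence intensity, with half-maximal concentration taken from fitted curves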
T2 construct: whole, on cells
Experimental: The desired cells were expanded to a logarithmic growth phase in a T-75 cell culture flask, the medium was removed by pipetting, and the cells were washed twice with a PBS buffer, and digested with trypsin. Then a complete medium was added to stop the digestion, and the cells were blown into a single cell suspension. After counting, the cells were centrifuged, and the cell pellet was resuspended with an FACS buffer (PBS+2% fetal bovine serum) to 2×10⁶ cells/mL. The cell resuspension solution was added to a 96-well FACS reaction plate at 50 μl/well, and a chimeric antibody sample to be tested was added at 50 μl/well for incubation at 4° C. for 1 h. […] After the plate was centrifuged and washed 3 times with a PBS buffer, 100 μl of the resulting solution was assayed and analyzed by FACS (FACS Canto™, purchased from BD Biosciences). Data analysis was performed by software (FlowJo) to obtain the mean fluorescence intensity (MFI) of the cells. Then, analysis was performed by software (GraphPad Prism8), data were fitted, and EC₅₀ values were calculated.

human GPC3-His protein = target: T3, human GPC3-His protein (human, UniProt P51654 25-559); assay: SPR, antibody captured on Protein A chip, human GPC3-His analyte;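 further: measured at 25 °C flow cell, human GPC3-His injected at five concentrations up to 200 nM, 240 s association, up to 600 s dissociation, double-referenced, fitted to Langmuir 1:1 model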
T3 construct: also called human GPC3 protein; not shown: His tag

monkey GPC3-His protein [3] = target: T1, monkey GPC3-His protein; assay: SPR, antibody captured on Protein A chip, monkey GPC3-His analyte;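 further: run at 25 °C with 240 s association and up to 600 s dissociation, double-referenced, kinetics fitted to a 1:1 Langmuir binding model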
Experimental: The flow cell was set at 25° C. The sample block was set at 16° C. Both were pretreated with the running buffer. In each cycle, first, the antibody to be tested was captured using the Protein A chip, and then a single concentration of GPC3 antigen protein was injected. […] The association was determined by injecting different concentrations of human GPC3-His in the solution and maintaining for 240 s, wherein the flow rate was 30 μL/min, and the protein was diluted at a 1:1 dilution ratio from 200 nM to obtain 5 concentrations in total. The dissociation phase was monitored for up to 600 s and triggered by switching from the sample solution to the running buffer. The surface was regenerated by washing with 10 mM glycine solution (pH 1.5) at a flow rate of 30 μL/min for 30 s. The difference in bulk refractive index was corrected by subtracting the responses obtained from the goat anti-human Fc surface. Blank injections (double reference) were also subtracted. To calculate the apparent KD and other kinetic parameters, the Langmuir 1:1 model was used.

| Binder | OD450 at 0.0001 nM (monkey GPC3-His protein [1]) [OD450] | OD450 at 0.001 nM (monkey GPC3-His protein [1]) [OD450] | OD450 at 0.01 nM (monkey GPC3-His protein [1]) [OD450] | OD450 at 0.1 nM (monkey GPC3-His protein [1]) [OD450] | OD450 at 1 nM (monkey GPC3-His protein [1]) [OD450] | OD450 at 10 nM (monkey GPC3-His protein [1]) [OD450] | OD450 at 100 nM (monkey GPC3-His protein [1]) [OD450] | EC50 [2] [nM] | Max MFI [2] [MFI] | Kd (human GPC3-His protein) [nM] | koff (human GPC3-His protein) [s⁻¹] | kon (human GPC3-His protein) [M⁻¹ s⁻¹] | Kd (monkey GPC3-His protein [3]) [nM] | koff (monkey GPC3-His protein [3]) [s⁻¹] | kon (monkey GPC3-His protein [3]) [M⁻¹ s⁻¹] |
| --- | --- | --- | --- | --- | --- | --- | --- | --- | --- | --- | --- | --- | --- | --- | --- |
| B1 | 0.05 | 0.06 | 0.12 | 0.51 | 1 | 1.11 | 1.49 | 0.29 | 6320 | 0.271 | 6.91e-05 | 255000 | 0.1 | 4.65e-05 | 464000 |
| B2 | 0.05 | 0.07 | 0.27 | 1.36 | 2.27 | 2.64 | 1.99 | 0.51 | 9880 | – | – | – | – | – | – |
| B3 | 0.05 | 0.06 | 0.11 | 0.46 | 0.83 | 0.81 | 1.24 | 0.23 | 6210 | 7.91 | 0.0021 | 265000 | 4.42 | 0.00213 | 482000 |
| B4 | 0.05 | 0.05 | 0.06 | 0.29 | 0.31 | 0.47 | 0.41 | 0.42 | 5560 | 2.5 | 0.000362 | 145000 | 1.38 | 0.000342 | 248000 |
| B5 | 0.05 | 0.06 | 0.17 | 0.55 | 0.73 | 0.21 | 0.37 | 0.33 | 6580 | 7.06 | 0.00075 | 106000 | 3.26 | 0.000639 | 196000 |
| B6 | 0.05 | 0.05 | 0.07 | 0.27 | 0.86 | 1.03 | 1.55 | 1.1 | 4740 | 2.37 | 0.00017 | 71600 | 1.25 | 0.000156 | 125000 |
| B7 | 0.05 | 0.06 | 0.14 | 0.77 | 1.68 | 2.15 | 2.3 | 0.77 | 5380 | 21.3 | 0.00278 | 131000 | 13 | 0.00306 | 236000 |
| B8 | 0.05 | 0.05 | 0.08 | 0.43 | 0.62 | 0.32 | 0.55 | 0.53 | 5880 | 5.88 | 0.000493 | 83900 | 3.4 | 0.000503 | 148000 |
| B9 | 0.05 | 0.05 | 0.06 | 0.15 | 0.64 | 0.62 | 0.58 | 2.26 | 5520 | 7.46 | 0.00017 | 22800 | 5.07 | 0.000139 | 27400 |
